From US20050282740A1 (BETH ISRAEL DEACONESS MEDICAL CENTER, published 2005)
Where no end group is shown, it is not given here. Fluorescein = N-terminal fluorescein label

Target: T1, GST (UniProt P08515 1-218 = GST)
T1 construct: Control protein; also called control GST
Assay: fluorescence anisotropy

T1 sequence (P08515 whole entry): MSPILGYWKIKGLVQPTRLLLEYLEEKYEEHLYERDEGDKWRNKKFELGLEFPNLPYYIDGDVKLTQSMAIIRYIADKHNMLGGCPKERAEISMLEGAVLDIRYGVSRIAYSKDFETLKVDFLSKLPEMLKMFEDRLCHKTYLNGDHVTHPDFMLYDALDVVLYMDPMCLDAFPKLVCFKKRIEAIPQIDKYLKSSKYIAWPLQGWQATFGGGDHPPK

binding result: no binding
B1: EQPLTPVTDL (peptide)
peptide: Fluorescein-EQPLTPVTDL
notes: also called nonphosphorylated Cdc25 Peptide
